In US20240270857A1 (CHIA TAI TIANQING PHARMACEUTICAL GROUP, published 2024):
Read-outs that look alike come from different tables or passages of the source.

T1: human IL-36R overexpressed on 293T-hIL36R-NFκB cells (human, UniProt Q9HB29 20-575)
T1 sequence: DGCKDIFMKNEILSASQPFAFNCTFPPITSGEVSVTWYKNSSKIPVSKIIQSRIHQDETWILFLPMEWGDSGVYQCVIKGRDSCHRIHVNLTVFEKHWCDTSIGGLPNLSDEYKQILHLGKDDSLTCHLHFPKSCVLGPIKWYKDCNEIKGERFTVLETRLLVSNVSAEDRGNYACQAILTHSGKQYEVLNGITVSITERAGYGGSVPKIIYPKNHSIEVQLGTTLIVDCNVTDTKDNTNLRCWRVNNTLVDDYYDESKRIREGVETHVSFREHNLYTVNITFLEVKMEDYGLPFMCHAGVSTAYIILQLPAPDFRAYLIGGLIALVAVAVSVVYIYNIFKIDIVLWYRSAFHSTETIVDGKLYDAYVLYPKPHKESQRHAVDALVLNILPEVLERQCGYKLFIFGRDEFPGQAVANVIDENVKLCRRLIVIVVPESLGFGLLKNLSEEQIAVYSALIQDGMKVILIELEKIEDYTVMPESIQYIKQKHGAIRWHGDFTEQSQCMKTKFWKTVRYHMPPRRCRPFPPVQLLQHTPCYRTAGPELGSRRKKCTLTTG

T2: cynomolgus IL-36R overexpressed on 293T-CynoIL36R-NFκB cells (cynomolgus monkey)
T2 chain: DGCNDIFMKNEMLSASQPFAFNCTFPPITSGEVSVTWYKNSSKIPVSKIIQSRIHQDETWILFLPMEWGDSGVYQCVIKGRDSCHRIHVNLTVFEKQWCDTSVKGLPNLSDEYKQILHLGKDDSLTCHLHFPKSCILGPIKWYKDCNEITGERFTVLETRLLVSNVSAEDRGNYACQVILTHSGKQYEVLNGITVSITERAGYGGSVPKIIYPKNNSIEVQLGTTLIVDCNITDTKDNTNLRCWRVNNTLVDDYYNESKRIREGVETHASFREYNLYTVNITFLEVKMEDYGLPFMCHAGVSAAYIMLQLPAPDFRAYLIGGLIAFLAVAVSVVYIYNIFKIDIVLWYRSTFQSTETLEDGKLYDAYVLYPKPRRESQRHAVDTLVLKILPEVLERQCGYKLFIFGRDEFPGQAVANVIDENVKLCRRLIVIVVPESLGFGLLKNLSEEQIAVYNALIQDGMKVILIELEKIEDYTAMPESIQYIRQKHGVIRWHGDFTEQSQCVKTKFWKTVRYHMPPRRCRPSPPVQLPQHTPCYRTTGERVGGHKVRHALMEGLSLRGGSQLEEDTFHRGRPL

T3: IL-36R naturally expressed on OVCAR8 cells and on normal human epidermal keratinocytes (NHK cells) (human, UniProt Q9HB29 20-575)
T3 sequence (looked up): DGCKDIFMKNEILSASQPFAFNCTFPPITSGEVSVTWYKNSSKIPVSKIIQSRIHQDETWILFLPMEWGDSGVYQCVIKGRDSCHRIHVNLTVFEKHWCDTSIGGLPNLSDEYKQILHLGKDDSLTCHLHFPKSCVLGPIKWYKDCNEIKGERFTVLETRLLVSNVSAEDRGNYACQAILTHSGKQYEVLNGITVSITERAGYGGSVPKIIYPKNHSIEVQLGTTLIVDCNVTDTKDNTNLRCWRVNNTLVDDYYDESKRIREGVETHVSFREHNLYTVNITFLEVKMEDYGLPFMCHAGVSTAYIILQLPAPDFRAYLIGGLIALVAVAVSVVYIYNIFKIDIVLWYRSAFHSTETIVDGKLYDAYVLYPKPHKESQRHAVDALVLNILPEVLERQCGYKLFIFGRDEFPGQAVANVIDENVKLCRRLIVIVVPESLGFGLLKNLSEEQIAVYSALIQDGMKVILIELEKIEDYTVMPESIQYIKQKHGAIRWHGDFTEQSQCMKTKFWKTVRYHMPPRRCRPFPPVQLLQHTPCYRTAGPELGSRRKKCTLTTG

T4: Human IL-1Rrp2/IL-1R6 protein, His Tag (ACROBiosystems, IL2-H52H6) (human, UniProt Q9HB29 20-335)
T4 construct: Bought protein; the soluble protein is likely only the extracellular part; also called hIL-36R; human IL36R antigen; not shown: His tag
T4 sequence: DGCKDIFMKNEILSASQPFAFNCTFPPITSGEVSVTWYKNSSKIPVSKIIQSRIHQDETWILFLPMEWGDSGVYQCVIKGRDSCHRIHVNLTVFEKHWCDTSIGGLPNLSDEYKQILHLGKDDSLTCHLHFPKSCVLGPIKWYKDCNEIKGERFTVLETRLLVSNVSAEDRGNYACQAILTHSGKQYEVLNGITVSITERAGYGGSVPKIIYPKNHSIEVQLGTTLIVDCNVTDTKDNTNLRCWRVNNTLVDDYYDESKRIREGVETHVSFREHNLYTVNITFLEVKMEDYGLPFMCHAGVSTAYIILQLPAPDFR

B1: BI655130 (antibody, human IgG1, kappa, L234A L235A)
heavy: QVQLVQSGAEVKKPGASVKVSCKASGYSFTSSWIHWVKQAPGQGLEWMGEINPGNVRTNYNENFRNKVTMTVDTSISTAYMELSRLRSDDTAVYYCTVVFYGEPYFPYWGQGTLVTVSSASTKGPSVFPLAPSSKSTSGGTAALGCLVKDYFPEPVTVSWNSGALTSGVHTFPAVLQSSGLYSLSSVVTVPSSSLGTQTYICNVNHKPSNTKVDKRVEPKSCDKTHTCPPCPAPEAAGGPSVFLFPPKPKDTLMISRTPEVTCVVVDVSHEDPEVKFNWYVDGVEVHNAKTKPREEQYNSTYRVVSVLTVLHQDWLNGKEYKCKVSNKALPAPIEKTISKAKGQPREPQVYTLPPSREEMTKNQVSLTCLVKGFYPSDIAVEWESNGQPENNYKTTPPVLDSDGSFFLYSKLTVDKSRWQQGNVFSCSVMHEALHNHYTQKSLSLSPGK
light: QIVLTQSPGTLSLSPGERATMTCTASSSVSSSYFHWYQQKPGQAPRLWIYRTSRLASGVPDRFSGSGSGTDFTLTISRLEPEDAATYYCHQFHRSPLTFGAGTKLEIKRTVAAPSVFIFPPSDEQLKSGTASVVCLLNNFYPREAKVQWKVDNALQSGNSQESVTEQDSKDSTYSLSSTLTLSKADYEKHKVYACEVTHQGLSSPVTKSFNRGEC
notes: also called Spesolimab
B2: chimeric 72C1 antibody (antibody, human IgG4 S228P, kappa)
heavy: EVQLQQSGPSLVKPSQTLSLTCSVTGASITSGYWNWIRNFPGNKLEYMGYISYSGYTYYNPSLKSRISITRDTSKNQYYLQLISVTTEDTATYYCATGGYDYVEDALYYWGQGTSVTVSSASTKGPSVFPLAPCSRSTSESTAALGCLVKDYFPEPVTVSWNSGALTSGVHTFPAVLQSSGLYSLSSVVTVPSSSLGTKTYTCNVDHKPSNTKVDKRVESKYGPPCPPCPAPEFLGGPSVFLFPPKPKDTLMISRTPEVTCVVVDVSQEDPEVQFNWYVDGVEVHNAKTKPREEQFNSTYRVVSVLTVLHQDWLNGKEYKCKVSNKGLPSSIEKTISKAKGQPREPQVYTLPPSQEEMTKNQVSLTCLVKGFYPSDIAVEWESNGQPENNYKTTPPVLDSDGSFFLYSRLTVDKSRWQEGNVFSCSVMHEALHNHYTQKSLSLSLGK
light: EILLTQSPAIMSATLGEKVTMSCRASSNVRYMYWYQLKSGASPKLWIYLTSNLASGVPARFSGSGSGTSYSLTISSVEAEDAATYFCQQFTTSPYTFGGGTKLEIKRTVAAPSVFIFPPSDEQLKSGTASVVCLLNNFYPREAKVQWKVDNALQSGNSQESVTEQDSKDSTYSLSSTLTLSKADYEKHKVYACEVTHQGLSSPVTKSFNRGEC
notes: Mouse variable regions on human IgG4 / kappa; also called xi72C1
B3: chimeric 84C4 antibody (antibody, human IgG4 S228P, kappa)
heavy: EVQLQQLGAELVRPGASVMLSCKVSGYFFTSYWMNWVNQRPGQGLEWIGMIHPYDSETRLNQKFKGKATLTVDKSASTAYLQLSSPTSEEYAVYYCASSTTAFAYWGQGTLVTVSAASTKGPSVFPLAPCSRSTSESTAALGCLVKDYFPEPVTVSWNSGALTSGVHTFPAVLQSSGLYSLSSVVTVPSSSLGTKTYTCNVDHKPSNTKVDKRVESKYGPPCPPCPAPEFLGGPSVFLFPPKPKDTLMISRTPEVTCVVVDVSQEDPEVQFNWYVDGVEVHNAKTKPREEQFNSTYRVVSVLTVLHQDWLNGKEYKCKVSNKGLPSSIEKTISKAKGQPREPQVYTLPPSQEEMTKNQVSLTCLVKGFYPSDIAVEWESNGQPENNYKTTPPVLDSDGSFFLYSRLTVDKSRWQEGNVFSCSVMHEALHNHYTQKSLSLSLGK
light: DILMTQSPSSLSASLGERVSLTCRASQDIGNALNWLQQAPDGTIKRLIYATSSLDPGVPKRFSGSRSGSDYSLTISSLASEDFVYYYCLQYASSPYTFGGGTKLEIKRTVAAPSVFIFPPSDEQLKSGTASVVCLLNNFYPREAKVQWKVDNALQSGNSQESVTEQDSKDSTYSLSSTLTLSKADYEKHKVYACEVTHQGLSSPVTKSFNRGEC
notes: Mouse variable regions on human IgG4 / kappa; also called xi84C4

How the values were obtained:
[1] = target: T1, human IL-36R overexpressed on …; experiment: cell-based or functional assay
[2] = target: T2, cynomolgus IL-36R overexpressed on …; experiment: cell-based or functional assay
[3] = target: T3, IL-36R naturally expressed on OVCAR8 …; experiment: cell-based or functional assay
[4] = target: T3, IL-36R naturally expressed on OVCAR8 …; experiment: cell-based or functional assay; remark: listed apart in the source
[5] = target: T3, IL-36R naturally expressed on OVCAR8 …; experiment: cell-based or functional assay; remark: listed apart in the source
[6] = target: T4, Human IL-1Rrp2/IL-1R6 protein, His Tag …; experiment: BLI (ForteBio Octet), antibody on ProA sensor, 1:1 model
Method: (§1) The affinity of anti-IL-36R antibodies to CynoIL36R-ECD mFc and human IL-1Rrp2/IL-IR6 protein, His Tag (ACROBiosystems, IL2-H52H6) was measured by a ForteBio molecular interaction instrument. […] And then the biosensor was used to bind CynoIL36R-ECD mFc or human IL-1Rrp2/IL-1R6 protein, His Tag which was diluted by a gradient (the initial concentration was 200 nM, 2-fold gradient dilution), the response signals were detected in real time using a Fortebio molecular interaction instrument (SARTORIUS, octet red 96e), and association and dissociation curves were obtained. After the completion of dissociation in each cycle, the biosensor was regenerated for the next capture; the procedure was repeated until the affinity of the different anti-IL-36R antibodies for IL-36R was determined. The resulting data were analyzed by Fortebio Data Analysis 11.0 software in a 1:1 (Langmuir) binding model to determine kₐ (kₒₙ) and kd (koff) values, and the dissociation constant KD was calculated by KD=kd/kₐ. The detection method essentially followed the manufacturer's recommendations, and more information could be found at www.fortebio.com.

[7] = target: T4, Human IL-1Rrp2/IL-1R6 protein, His Tag …; experiment: as above; remark: listed apart in the source
Method: as §1

| Binder | IC50; NFκB-luciferase reporter in 293T-hIL36R-NFκB cells stimulated with hIL36γ, inhibition rate % [1] | IC50; NFκB-luciferase reporter in 293T-CynoIL36R-NFκB cells stimulated with hIL36γ, inhibition rate % [2] | IC50; IL-8 production of OVCAR8 cells stimulated with hIL36α, inhibition rate % [3] | IC50; IL-8 production of OVCAR8 cells stimulated with hIL36β, inhibition rate % [4] | IC50; IL-8 production of NHK cells stimulated with hIL36α, inhibition rate % [5] | Kd [6] | koff [6] | kon [6] | Kd [7] | koff [7] | kon [7] |
| --- | --- | --- | --- | --- | --- | --- | --- | --- | --- | --- | --- |
| B1 | ~13.2 nM | 11.8 nM | 0.0927 nM | 0.0755 nM | 0.0741 nM | 0.245 nM | 1.57e-05 s⁻¹ | 64100 M⁻¹ s⁻¹ | 0.22 nM | 1.29e-05 s⁻¹ | 58600 M⁻¹ s⁻¹ |
| B2 | – | 2.38 nM | – | 0.116 nM | 0.159 nM | 0.736 nM | 4.38e-05 s⁻¹ | 59600 M⁻¹ s⁻¹ | – | – | – |
| B3 | ~13.2 nM | – | 0.0181 nM | – | – | – | – | – | 0.66 nM | 7e-05 s⁻¹ | 106000 M⁻¹ s⁻¹ |
